Laboratory results from the Human Domainome abundance scans (Beltran et al. 2025).
± gives the uncertainty stated by the source.

B1: Membrane-associated guanylate kinase, WW and PDZ domain-containing protein 2, residues 601 to 682; numbered along this chain, Q86UL8 (parent)
chain: AELMTLTIVKGAQGFGFTIADSPTGQRVKQILDIQGCPGLCEGDLIVEINQQNVQNLSHTEVVDILKDCPIGSETSLIIHRG

Variants of: B1
Assay: abundance fitness (aPCA) (normalised: wild type 0, dead -1); higher = more abundant; growth selection in yeast, the domain comes from the species named
Conditions: Homo sapiens

Variant	abundance fitness
R81G	0.017 ± 0.067
R81K	-0.21 ± 0.17
R81V	-0.252 ± 0.11
R81Q	-0.051 ± 0.16
R81N	-0.144 ± 0.37
R81M	-0.387 ± 0.12
R81P	0.039 ± 0.083
R81T	-0.174 ± 0.12
R81E	-0.419 ± 0.1
R81H	0.048 ± 0.23
R81I	-0.668 ± 0.25
R81W	-0.52 ± 0.12
R81A	-0.098 ± 0.079
R81D	-0.538 ± 0.41
I79G	-0.42 ± 0.11
I79L	0.036 ± 0.077
I79K	-0.534 ± 0.16
I79A	-0.214 ± 0.14
I79C	-0.115 ± 0.12
I79Q	-0.73 ± 0.27
I79W	-0.467 ± 0.17
I79R	-0.24 ± 0.064
I79M	-0.005 ± 0.16

Variant	abundance fitness
I79V	-0.102 ± 0.073
I79S	-0.314 ± 0.11
I79T	-0.063 ± 0.12
I79F	-0.046 ± 0.17
E74I	-0.214 ± 0.16
E74R	0.013 ± 0.069
E74Q	-0.074 ± 0.16
E74K	-0.23 ± 0.34
E74G	-0.153 ± 0.1
E74W	-0.069 ± 0.096
E74P	0.149 ± 0.12
E74S	-0.16 ± 0.1
E74C	-0.322 ± 0.17
E74V	-0.122 ± 0.12
E74D	0.137 ± 0.15
E74M	0.062 ± 0.15
E74T	-0.422 ± 0.38
E74H	0.241 ± 0.47
G82H	-0.303 ± 0.27
G82P	-0.058 ± 0.12
G82R	-0.016 ± 0.082
G82V	-0.188 ± 0.16
G82Q	0.092 ± 0.37

Variant	abundance fitness
G82W	-0.184 ± 0.15
G82T	-0.023 ± 0.22
G82F	-0.25 ± 0.17
G82C	-0.117 ± 0.16
G82D	0.009 ± 0.11
G82S	-0.09 ± 0.076
G82A	-0.051 ± 0.11
G82K	-0.16 ± 0.15
G82L	-0.148 ± 0.17
H80C	-0.121 ± 0.11
H80A	-0.049 ± 0.077
H80N	0.124 ± 0.19
H80S	0.014 ± 0.075
H80W	-0.079 ± 0.16
H80E	0.019 ± 0.11
H80L	-0.135 ± 0.079
H80T	0.028 ± 0.079
H80V	-0.231 ± 0.098
H80R	0.027 ± 0.063
H80D	0.043 ± 0.14
H80P	-0.395 ± 0.14
H80G	-0.006 ± 0.076
H80F	-0.128 ± 0.19

Variant	abundance fitness
H80M	-0.23 ± 0.27
I78Q	-0.23 ± 0.14
I78W	-0.129 ± 0.089
I78H	-0.157 ± 0.2
I78S	0.019 ± 0.098
I78R	0.033 ± 0.071
I78T	-0.224 ± 0.15
I78F	-0.035 ± 0.27
I78E	-0.086 ± 0.17
I78K	-0.122 ± 0.1
I78L	-0.053 ± 0.097
I78P	-1.13 ± 0.49
I78A	-0.179 ± 0.12
I78N	-0.011 ± 0.2
I78M	0.144 ± 0.14
I78G	-0.075 ± 0.068
T75D	-0.09 ± 0.21
T75V	0.013 ± 0.091
T75K	-0.133 ± 0.11
T75Q	-0.148 ± 0.14
T75I	-0.101 ± 0.4
